Measurements published in US10864269B2, “Therapeutic combinations comprising anti-CD73 antibodies and uses thereof” (MedImmune Limited, priority 2014, dated 2020).

How the values were obtained:
cynomolgus CD73 = experiment: Solution binding, cynomolgus CD73; details: as measured by solution binding
[1] = target: T1, native CD73, MDA-MB-231 cells (Homo sapiens, UniProt P21589); experiment: Flow cytometry binding to native CD73, MDA-MB-231 cells
T1 construct: native CD73 expressed on human, murine, and cynomolgus monkey cell lines; endogenous in cells; host or cells: MDA-MB-231
T1 sequence (P21589 27-549): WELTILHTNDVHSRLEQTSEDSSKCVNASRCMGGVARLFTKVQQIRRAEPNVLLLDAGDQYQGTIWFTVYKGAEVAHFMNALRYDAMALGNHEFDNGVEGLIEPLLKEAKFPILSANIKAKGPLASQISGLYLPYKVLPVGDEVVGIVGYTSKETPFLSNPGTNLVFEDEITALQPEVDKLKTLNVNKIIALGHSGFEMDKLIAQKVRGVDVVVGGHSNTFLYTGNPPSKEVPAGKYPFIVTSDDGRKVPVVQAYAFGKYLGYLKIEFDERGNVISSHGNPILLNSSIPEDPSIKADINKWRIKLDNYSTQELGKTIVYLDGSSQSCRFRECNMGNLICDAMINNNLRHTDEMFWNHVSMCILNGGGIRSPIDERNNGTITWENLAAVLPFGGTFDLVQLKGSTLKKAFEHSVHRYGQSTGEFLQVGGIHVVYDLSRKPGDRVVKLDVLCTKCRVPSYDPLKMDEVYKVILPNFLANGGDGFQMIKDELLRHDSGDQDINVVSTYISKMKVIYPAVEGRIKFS
Experimental: Binding of MEDI9447 to native CD73 expressed on human, murine, and cynomolgus monkey cell lines was characterized by flow cytometry. The cells were incubated with various concentrations of MEDI9447 and antibody binding was monitored with and fluorophore-labeled anti-human Fc antibody. A plot of the median fluorescence intensity as a function of the MEDI9447 concentration was fitted nonlinearly using a one-site binding isotherm model to calculate the equilibrium dissociation constant.
(§1) The affinity of enhanced anti-CD73 antibodies (in IgG1-TM format) to human, murine, and cynomolgus CD73 was determined by flow cytometry and surface plasmon resonsance (SPR) (Table 13). The enhanced antibodies had pM affinity to cellular and recombinant CD73 from the three species.
All flow cytometry experiments were run at 4C and reagents were prepared in PBS/1% FBS buffer. 10,000 cells were incubated with test antibody in 50 uL volume for 4 hours. Cells were washed twice and incubated in 50 uL goat anti-human IgGFc-AlexaFluor647 conjugate for 15 minutes. Cells were washed, resuspended in buffer supplemented with Dapi, and analyzed on a flow cytometer. […] For the determination of KD values, a plot of the median fluorescence intensity as a function of test antibody concentration was fitted nonlinearly using a one site binding isotherm model.

huCD73 = target: T2, huCD73 (Homo sapiens, UniProt P21589); experiment: Solution binding, human CD73; details: as measured by solution binding
T2 sequence (P21589 27-549): T1 sequence (P21589 27-549)

human CD73 ECD = target: T3, human CD73 ECD (Homo sapiens, UniProt P21589); experiment: Surface plasmon resonance (ProteOn), human CD73; type: binding; details: SPR
T3 construct: made in house; host or cells: mammalian cells
T3 sequence (P21589 27-549 limits assumed): T1 sequence (P21589 27-549)
Experimental: A ProteOn XPR36 instrument was used to characterize binding of MEDI9447 to human, murine, and cynomolgus CD73 ECD. MEDI9447 was affinity-captured using an anti-human Fc antibody. CD73 ECD was in the mobile phase. The association and dissociation of CD73 to MEDI9447 could be accurately described with the Langmuir 1:1 model.
as §1

4T1 cells = experiment: FabZAP antibody internalization assay, 4T1; type: cell-based, murine; details: 4T1, 3 days
Experimental: Internalization of MEDI9447 into cell lines MDA-MB-231 (human mammary carcinoma) and 4T1 (murine mammary carcinoma) was assessed using a human Antibody Internalization Kit that is sold commercially as the FabZAP assay (Advanced Targeting Systems, San Diego Calif.). Serial dilutions of MEDI9447 or negative control antibody R347 were pre-incubated with 40 nM FabZAP reagent (Fab fragment of a polyclonal anti-human IgG antibody conjugated to the cytotoxic protein saporin) and then added to the cell lines. After 3 days in culture, cell proliferation was measured using a luminescent cell viability assay sold commercially as the CELLTITER-GLO® assay (Promega, Madison Wis.). This assay was used to calculate EC50 values and maximum toxicity. […]
Cell proliferation of MDA-MB-231 cells and 4T1 cells treated with serial dilutions of test antibody and FabZAP reagent was measured by CELLTITER-GLO® assay (FIG. 2). The signal from the negative control antibody R347 in the CELLTITER-GLO® assay was subtracted from the signal of MEDI9447 and the EC50 value and maximum toxicity were calculated by fitting the dose-response curve using non-linear regression analysis.
1,000 cells/well were cultured in 96 well plates in RPMI/10% FBS. […] After 3 days incubation at 37C, the cell proliferation was measured using the CELLTITER-GLO® assay (Promega, Madison Wis.).

murine CD73 = target: T4, murine CD73 (Mus musculus, UniProt Q61503); experiment: Solution binding, murine CD73; details: as measured by solution binding
T4 sequence (Q61503 29-551): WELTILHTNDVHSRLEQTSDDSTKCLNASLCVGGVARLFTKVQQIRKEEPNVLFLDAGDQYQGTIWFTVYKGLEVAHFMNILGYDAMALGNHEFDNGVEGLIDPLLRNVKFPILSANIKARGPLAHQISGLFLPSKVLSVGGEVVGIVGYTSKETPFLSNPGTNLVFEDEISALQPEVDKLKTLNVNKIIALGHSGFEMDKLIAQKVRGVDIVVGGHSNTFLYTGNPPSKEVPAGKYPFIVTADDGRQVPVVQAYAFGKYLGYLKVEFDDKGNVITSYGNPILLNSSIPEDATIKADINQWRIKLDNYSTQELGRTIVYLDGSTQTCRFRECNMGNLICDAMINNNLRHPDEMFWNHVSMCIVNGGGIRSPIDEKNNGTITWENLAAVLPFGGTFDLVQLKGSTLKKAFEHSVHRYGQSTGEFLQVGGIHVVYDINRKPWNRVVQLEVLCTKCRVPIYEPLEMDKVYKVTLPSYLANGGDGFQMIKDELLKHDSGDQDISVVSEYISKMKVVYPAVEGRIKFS

MEDI9447: IgG1 with CD730010-derived VL of SEQ ID NO: 68 and VH of SEQ ID NO: 82
Kd (cynomolgus CD73): ~0.09 nM | Kd ([1]; as measured by flow cytometry, read-out: KD, CD73 on the surface of MB-MDA-231 cells): ~0.15 nM | KD values by flow cytometry, fold greater than those determined by SPR ([1]; human, murine and cynomolgus CD73): 13—126 fold | Kd (huCD73): ~0.08 nM | kd (human CD73 ECD; Human CD73 ECD): 1.06e-05 s⁻¹ | ka (human CD73 ECD; antibody captured, Human CD73 ECD in mobile phase): 2.57e+06 M⁻¹ s⁻¹ | maximum toxicity (4T1 cells): 97% | Kd (murine CD73): ~0.13 nM
